Our source for the Kd values is publication PMC3659266 (Structure (London, England : 1993), 2013).

This assay deals with Human full-length eIF4AI (human, UniProt P60842 1-406). As to the kind of experiment: ITC.

For orientation: Kd means the concentration at which binding is half-saturated.

Chain of Human full-length eIF4AI (P60842 whole entry): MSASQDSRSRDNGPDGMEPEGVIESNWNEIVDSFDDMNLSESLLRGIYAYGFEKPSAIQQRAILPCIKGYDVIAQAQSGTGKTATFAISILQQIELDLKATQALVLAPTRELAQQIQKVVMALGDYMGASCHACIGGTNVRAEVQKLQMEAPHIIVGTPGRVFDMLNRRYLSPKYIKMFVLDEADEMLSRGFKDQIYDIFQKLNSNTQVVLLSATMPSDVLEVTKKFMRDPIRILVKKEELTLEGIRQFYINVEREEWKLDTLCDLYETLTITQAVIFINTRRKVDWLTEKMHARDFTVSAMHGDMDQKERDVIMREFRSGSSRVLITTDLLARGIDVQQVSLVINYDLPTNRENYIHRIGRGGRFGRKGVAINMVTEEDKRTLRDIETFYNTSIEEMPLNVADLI

B1: Middle domain of human eIF4GI (MIF4G, residues 732-1003) (domain or fragment, UniProt Q04637 732-1003, looked up)
chain: KAWKPSSKRTAADKDRGEEDADGSKTQDLFRRVRSILNKLTPQMFQQLMKQVTQLAIDTEERLKGVIDLIFEKAISEPNFSVAYANMCRCLMALKVPTTEKPTVTVNFRKLLLNRCQKEFEKDKDDDEVFEKKQKEMDEAATAEERGRLKEELEEARDIARRRSLGNIKFIGELFKLKMLTEAIMHDCVVKLLKNHDEESLECLCRLLTTIGKDLDFEKAKPRMDQYFNQMEKIIKEKKTSSRIRFMLQDVLDLRGSNWVPRRGDQGPKTID
Regarding B1, the Kd was found to be 136 nM.
